According to the supplement of paper PMC9428881:
± gives the standard error.

Test: background-corrected fluorescence of 3'-dye-labeled ssDNA relative to brightest sequence (3'-GCGCG) (fraction); higher = brighter dye fluorescence (less quenching)
How it was run: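 By light-directed phosphoramidite synthesis, single-stranded DNA ending in a 3' Cy3 or Cy5 dye beside each of 1024 permuted pentamers was built on glass slides. Scanning at 532 or 635 nm took place before and after overnight ethylenediamine/ethanol deprotection. Data are means of 10 features per array over at least 3 syntheses. Fluorescence is corrected for unlabeled-oligo background and scaled to the brightest sequence.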

Sequence | background-corrected fluorescence (dye: Cy3 (3' terminal)) | background-corrected fluorescence (dye: Cy5 (3' terminal))
TTTTTTGATCATGATGATCATTTTTTTTTTTTTTTCGCCG [GCCGC] | 0.647 ± 0.017 | 0.506 ± 0.046
TTTTTTGCTCATGCGCATGATTTTTTTTTTTTTTTAGATC [CTAGA] | 0.464 ± 0.013 | 0.359 ± 0.023
TTTTTTGCGCAGCATCATCATTTTTTTTTTTTTTTATTGG [GGTTA] | 0.549 ± 0.038 | 0.476 ± 0.055
TTTTTTGCGCATGCTGATGCTTTTTTTTTTTTTTTATACA [ACATA] | 0.492 ± 0.031 | 0.372 ± 0.024
TTTTTTGATGCGCATCAGCATTTTTTTTTTTTTTTCATGT [TGTAC] | 0.615 ± 0.028 | 0.464 ± 0.032
TTTTTTCAGCATCATGATGATTTTTTTTTTTTTTTGTGCC [CCGTG] | 0.438 ± 0.022 | 0.332 ± 0.028
TTTTTTCATGCTCAGCATGATTTTTTTTTTTTTTTGAGTC [CTGAG] | 0.469 ± 0.015 | 0.359 ± 0.017
TTTTTGCATGATGATGCGCATTTTTTTTTTTTTTTTCCAT [TACCT] | 0.477 ± 0.025 | 0.344 ± 0.024
TTTTTTGAGCATGAGCATCATTTTTTTTTTTTTTTCTCTG [GTCTC] | 0.48 ± 0.018 | 0.352 ± 0.033
TTTTTTCAGCATCATCATGATTTTTTTTTTTTTTTGTGGC [CGGTG] | 0.572 ± 0.011 | 0.439 ± 0.041
TTTTTGCATGCTGCTCAGCATTTTTTTTTTTTTTTTAAGT [TGAAT] | 0.663 ± 0.018 | 0.493 ± 0.031
TTTTTTGCTGCTCATGCTGATTTTTTTTTTTTTTTAAGAC [CAGAA] | 0.485 ± 0.015 | 0.363 ± 0.018
TTTTTTGCTGATGCTGCGCATTTTTTTTTTTTTTTACAAT [TAACA] | 0.525 ± 0.028 | 0.396 ± 0.021
TTTTTTGCTCAGCATGATGATTTTTTTTTTTTTTTAGTCC [CCTGA] | 0.41 ± 0.024 | 0.329 ± 0.04
TTTTTGCAGCATGATGATGATTTTTTTTTTTTTTTTTCCC [CCCTT] | 0.35 ± 0.0099 | 0.266 ± 0.016
TTTTTTCAGCATGCTCAGCATTTTTTTTTTTTTTTGTAGT [TGATG] | 0.575 ± 0.0066 | 0.459 ± 0.032
TTTTTTGCTGATGCTGCTGCTTTTTTTTTTTTTTTACAAA [AAACA] | 0.581 ± 0.022 | 0.499 ± 0.064
TTTTTTCAGCATGATGCGCATTTTTTTTTTTTTTTGTCAT [TACTG] | 0.529 ± 0.025 | 0.39 ± 0.03
TTTTTTCATGATCATGCTGATTTTTTTTTTTTTTTGCGAC [CAGCG] | 0.518 ± 0.026 | 0.394 ± 0.023
TTTTTTCATGCTGCTGCTCATTTTTTTTTTTTTTTGAAAG | 0.574 ± 0.028 | 0.431 ± 0.056
TTTTTGCATGATCATCATCATTTTTTTTTTTTTTTTCGGG [GGGCT] | 0.664 ± 0.02 | 0.558 ± 0.044
TTTTTTGCTCATGAGCATGATTTTTTTTTTTTTTTAGCTC [CTCGA] | 0.408 ± 0.042 | 0.323 ± 0.024
TTTTTTCATGATCATGATGCTTTTTTTTTTTTTTTGCGCA [ACGCG] | 0.714 ± 0.027 | 0.657 ± 0.043
TTTTTTGATCAGCAGCATCATTTTTTTTTTTTTTTCGTTG [GTTGC] | 0.533 ± 0.023 | 0.422 ± 0.051

Sequence | background-corrected fluorescence (dye: Cy3 (3' terminal)) | background-corrected fluorescence (dye: Cy5 (3' terminal))
TTTTTTCAGCATGATCAGCATTTTTTTTTTTTTTTGTCGT [TGCTG] | 0.581 ± 0.021 | 0.451 ± 0.032
TTTTTGCATGCTCATGCTGATTTTTTTTTTTTTTTTAGAC [CAGAT] | 0.463 ± 0.023 | 0.369 ± 0.015
TTTTTTCATCATGATGATGCTTTTTTTTTTTTTTTGGCCA [ACCGG] | 0.518 ± 0.025 | 0.425 ± 0.025
TTTTTGCATCAGCATGCTGATTTTTTTTTTTTTTTTGTAC [CATGT] | 0.471 ± 0.041 | 0.344 ± 0.022
TTTTTTGAGCATGCTGCTGCTTTTTTTTTTTTTTTCTAAA [AAATC] | 0.569 ± 0.008 | 0.457 ± 0.021
TTTTTTGATCATGCTCATGATTTTTTTTTTTTTTTCGAGC | 0.547 ± 0.018 | 0.425 ± 0.035
TTTTTTGCGCATGCTCATCATTTTTTTTTTTTTTTATAGG [GGATA] | 0.628 ± 0.019 | 0.516 ± 0.03
TTTTTTGATGATGCTCATGCTTTTTTTTTTTTTTTCCAGA [AGACC] | 0.635 ± 0.027 | 0.527 ± 0.028
TTTTTGCATCAGCAGCATCATTTTTTTTTTTTTTTTGTTG [GTTGT] | 0.515 ± 0.027 | 0.373 ± 0.017
TTTTTTCATCATGCTCATCATTTTTTTTTTTTTTTGGAGG | 0.689 ± 0.0083 | 0.534 ± 0.029
TTTTTTGCTGATGATGATGATTTTTTTTTTTTTTTACCCC [CCCCA] | 0.358 ± 0.016 | 0.271 ± 0.027
TTTTTTGCTCATGCTGCTGATTTTTTTTTTTTTTTAGAAC [CAAGA] | 0.485 ± 0.022 | 0.358 ± 0.022
TTTTTTGATGATGCGCATGATTTTTTTTTTTTTTTCCATC [CTACC] | 0.387 ± 0.081 | 0.281 ± 0.02
TTTTTTCATGCTCATGCTCATTTTTTTTTTTTTTTGAGAG | 0.6283 ± 0.0056 | 0.492 ± 0.024
TTTTTTGAGCAGCATGCGCATTTTTTTTTTTTTTTCTTAT [TATTC] | 0.513 ± 0.029 | 0.369 ± 0.025
TTTTTTCATGCTGATCATCATTTTTTTTTTTTTTTGACGG [GGCAG] | 0.65 ± 0.026 | 0.585 ± 0.076
TTTTTTGATCATGATCATGATTTTTTTTTTTTTTTCGCGC | 0.759 ± 0.032 | 0.66 ± 0.052
TTTTTTGCTGATCAGCATGATTTTTTTTTTTTTTTACGTC [CTGCA] | 0.448 ± 0.016 | 0.373 ± 0.025
TTTTTTGATGCTGATGATGCTTTTTTTTTTTTTTTCACCA [ACCAC] | 0.493 ± 0.019 | 0.375 ± 0.043
TTTTTTGCTGCTCAGCAGCATTTTTTTTTTTTTTTAAGTT [TTGAA] | 0.609 ± 0.021 | 0.433 ± 0.024
TTTTTGCATGATGCTGCTGATTTTTTTTTTTTTTTTCAAC [CAACT] | 0.429 ± 0.0094 | 0.318 ± 0.025
TTTTTGCATCATCATGATGATTTTTTTTTTTTTTTTGGCC [CCGGT] | 0.46 ± 0.032 | 0.369 ± 0.03
TTTTTTCATGATGAGCATCATTTTTTTTTTTTTTTGCCTG [GTCCG] | 0.481 ± 0.028 | 0.35 ± 0.021
